In experiment [1] the target is T1, cynomolgus BLyS (full length, arginine to histidine at position 132) on CHO-K1 cells (cynomolgus, UniProt Q9Y275 1-285 (human entry)).
T1 construct: also called cyno BLyS; CHO-K1 cynoBLyS
T1 chain: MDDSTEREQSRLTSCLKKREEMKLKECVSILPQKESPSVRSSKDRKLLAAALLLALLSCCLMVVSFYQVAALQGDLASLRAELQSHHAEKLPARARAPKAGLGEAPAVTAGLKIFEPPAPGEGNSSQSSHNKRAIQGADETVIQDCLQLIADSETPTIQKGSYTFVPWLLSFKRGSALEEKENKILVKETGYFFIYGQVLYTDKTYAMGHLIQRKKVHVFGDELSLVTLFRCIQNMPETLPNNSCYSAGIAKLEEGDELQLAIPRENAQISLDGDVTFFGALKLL
Nature of the experiment: flow cytometry, CHO-K1 cynoBLyS cells, antibody 13.3 nM. As to the method: (§1) The medium was aspirated completely, and the cells were rinsed once with PBS buffer (purchased from Invitrogen) and then treated with cell dispersion solution (TrypLE™ Express Enzyme, purchased from Life technology) and collected. The detailed steps are as follows: the cells were rinsed once with PBS buffer, after counting, the cells were diluted to 2×10⁶ cells/ml with PBS buffer, blocked with 2% (w/w) fetal bovine serum and incubated on ice for 30 minutes. 200 μL of which per well was aliquoted into a 96-well FACS plate and centrifuged at 2000 rpm at 4° C., then each 100 μL of the lead antibodies obtained from Embodiment 1 and 2 were aliquoted into each well and incubated on ice for 1 hour. […] After centrifuged and rinsed 3 times with FACS buffer, cells were suspended with 200 μL of FACS buffer and the results were detected and analyzed by FACS (FACS Calibur, purchased from BD). It was shown in Tables 12-13 that the lead antibody could bind to human BLyS protein on the cell surface and the lead antibody could cross-react with cynomolgus BLyS. The data in the table is MFI, the average fluorescence intensity of the cell population.

Experiment [2] deals with T2, human BLyS (full length, arginine to histidine at position 132) on CHO-K1 cells (human, UniProt Q9Y275 1-285).
T2 construct: also called hBLyS; CHO-K1 hBLyS
As to the kind of experiment: flow cytometry, CHO-K1 hBLyS cells, antibody 0.0213 nM. As to the method: as §1
(In general: In flow cytometry, cells or beads pass a laser one at a time.)

The target of experiment [3] is T1, cynomolgus BLyS (full length, arginine …). As to the kind of experiment: flow cytometry, CHO-K1 cynoBLyS cells, antibody 0.107 nM. As for the experimental part:
as §1

The next experiment concerns the target mouse BLyS protein (mouse, UniProt Q9WU72 69-309). Nature of the experiment: cell-based or functional assay.
The target of experiment [4] is T1, cynomolgus BLyS (full length, arginine …). Nature of the experiment: flow cytometry, CHO-K1 cynoBLyS cells, antibody 0.0213 nM. As for the experimental part: as §1
Experiment [5] has the same target. Nature of the experiment: flow cytometry, CHO-K1 cynoBLyS cells, antibody 0.00427 nM. As for the experimental part: as §1
The target is the same in experiment [6]. As to the kind of experiment: flow cytometry, CHO-K1 cynoBLyS cells, antibody 0.534 nM. As to the method: as §1
Experiment [7] shares this target. Nature of the experiment: flow cytometry, CHO-K1 cynoBLyS cells, antibody 66.7 nM. As to the method:
as §1

The target in experiment [8] is T2, human BLyS (full length, arginine to …). Nature of the experiment: flow cytometry, CHO-K1 hBLyS cells, antibody 2.67 nM. As for the experimental part: as §1
The target is the same in experiment [9]. Nature of the experiment: flow cytometry, CHO-K1 hBLyS cells, antibody 0.00427 nM. As to the method: as §1
Experiment [10] concerns the target T1, cynomolgus BLyS (full length, arginine …). Nature of the experiment: flow cytometry, CHO-K1 cynoBLyS cells, antibody 0 nM. As to the method:
as §1

The target of experiment [11] is T2, human BLyS (full length, arginine to …). As to the kind of experiment: flow cytometry, CHO-K1 hBLyS cells, antibody 66.7 nM. As to the method:
as §1

Experiment [12] deals with T1, cynomolgus BLyS (full length, arginine …). As to the kind of experiment: flow cytometry, CHO-K1 cynoBLyS cells, antibody 2.67 nM. As for the experimental part: as §1
In experiment [13] the target is T2, human BLyS (full length, arginine to …). Nature of the experiment: flow cytometry, CHO-K1 hBLyS cells, antibody 0 nM. As for the experimental part:
as §1

The target is the same in experiment [14]. Nature of the experiment: flow cytometry, CHO-K1 hBLyS cells, antibody 0.534 nM. As to the method: as §1
Experiment [15] has the same target. As to the kind of experiment: flow cytometry, CHO-K1 hBLyS cells, antibody 13.3 nM. As for the experimental part: as §1
Experiment [16] has the same target. As to the kind of experiment: flow cytometry, CHO-K1 hBLyS cells, antibody 0.107 nM. As to the method:
as §1

Experiment [17] addresses T3, human APRIL protein (human, UniProt O75888 105-250, limits assumed).
T3 construct: Bought protein; also called recombinant APRIL protein
T3 sequence (looked up): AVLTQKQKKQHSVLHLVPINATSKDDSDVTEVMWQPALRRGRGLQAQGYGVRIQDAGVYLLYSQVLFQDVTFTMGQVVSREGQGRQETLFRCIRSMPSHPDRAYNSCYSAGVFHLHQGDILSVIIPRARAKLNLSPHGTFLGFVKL
As to the kind of experiment: ELISA, coated APRIL; antibody 0.0213 nM. As to the method:
(§2) To test whether the BLyS antibody cross-reacted with human APRIL protein, APRIL protein (purchased from R & D Systems) was first diluted to a final concentration of 1.0 μg/mL with PBS, and then 50 μL of which per well was aliquoted into a 96-well ELISA plate, and the plate was subsequently sealed with plastic film and incubated at 4° C. overnight. On the next day the plate was rinsed four times with the plate washing buffer [PBS buffer containing 0.0500 (v/v) Tween20] and a blocking solution [PBS buffer containing 0.05 (v/v) Tween20 and 1 (w/w) BSA] was added, then the protein was blocked at 37° C. for 2 hours. The blocking solution was removed and 100 μL per well of the lead antibodies prepared in Embodiment 1 and 2 were added in. After incubation for 1 hour at 37° C., the plate was rinsed four times with the plate washing buffer [PBS buffer containing 0.05 (v/v) Tween20]. HRP-labeled (horseradish peroxidase) secondary antibody (purchased from Sigma) was added in and incubated at 37° C. for 1 hour. The plate was then rinsed four times with the plate washing buffer [PBS buffer containing 0.050 (v/v) Tween20]. 100 μL of TMB substrate was aliquoted into each well and after incubation at room temperature for 5 minutes, 100 μL of stop solution (1.0 N HCl) was aliquoted into each well. A₄₅₀ₙₘ values were read via an ELISA plate reader (SpectraMax M5e purchased from Molecular Devices) and the results were shown in FIGS. 6A-6B and Table 11. […] As used herein, the IgG control is human IgG and the data in the table is GD number at 450 nm.

Experiment [18] deals with T3, human APRIL protein. As to the kind of experiment: ELISA, coated APRIL; antibody 0.00427 nM. As to the method:
as §2
A general note: ELISA stands for enzyme-linked immunosorbent assay.

The target in experiment [19] is T3, human APRIL protein. As to the kind of experiment: ELISA, coated APRIL; antibody 0.107 nM. As to the method:
as §2

For experiment [20], the target named is T3, human APRIL protein. Nature of the experiment: ELISA, coated APRIL; antibody 0 nM (blank). As for the experimental part: as §2
The target of experiment [21] is T3, human APRIL protein. Nature of the experiment: ELISA, coated APRIL; antibody 66.7 nM. As to the method: as §2
For experiment [22], the target named is T3, human APRIL protein. As to the kind of experiment: ELISA, coated APRIL; antibody 0.534 nM. As for the experimental part:
as §2

In experiment [23] the target is T3, human APRIL protein. As to the kind of experiment: ELISA, coated APRIL; antibody 13.3 nM. As to the method:
as §2

The target in experiment [24] is T3, human APRIL protein. As to the kind of experiment: ELISA, coated APRIL; antibody 2.67 nM. As to the method: as §2

mouse BLyS protein, sequence (Q9WU72 69-309): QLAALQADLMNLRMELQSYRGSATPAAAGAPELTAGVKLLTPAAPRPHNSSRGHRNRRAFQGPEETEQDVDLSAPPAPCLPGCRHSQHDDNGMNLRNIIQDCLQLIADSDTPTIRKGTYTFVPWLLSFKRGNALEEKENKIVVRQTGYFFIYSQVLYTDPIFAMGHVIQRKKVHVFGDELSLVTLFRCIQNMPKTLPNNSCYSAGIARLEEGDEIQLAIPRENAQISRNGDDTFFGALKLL
T2 sequence (Q9Y275 whole entry R130H): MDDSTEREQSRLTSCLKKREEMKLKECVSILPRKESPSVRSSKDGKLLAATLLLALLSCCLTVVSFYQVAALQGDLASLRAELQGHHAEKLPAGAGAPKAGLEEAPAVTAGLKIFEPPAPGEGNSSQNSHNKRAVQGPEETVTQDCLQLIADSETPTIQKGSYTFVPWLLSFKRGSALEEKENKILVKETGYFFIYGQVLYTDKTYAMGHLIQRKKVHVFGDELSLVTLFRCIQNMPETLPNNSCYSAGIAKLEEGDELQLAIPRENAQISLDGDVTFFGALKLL

B1: 35E6F7C3 (antibody, V domains shown)
VH: EVQLQQSGAELVKPGASVKLSCTAAGFNIQDTYIHWVKQRPEQGLEWIGRIDPANANTVYDPKFQGKATITADTSSNTAYLQVSSLTSEDTAVYYCASPVITAGFAYWGQGTLVTVSA
VL: QIVLTQSPAIMSASPGEKVTMTCGASSSVNYVHWYQQKSGTSPKRWIYDTSKLASGVPARFSGSGSGTSYSLTISSMEAEDAATYYCQQWTRSPLTFGAGTKVELK
notes: Mouse hybridoma monoclonal antibody purified on Protein G
Turning to B1, the MFI in experiment [1] was determined as 1080 MFI; in [2], 54.9 MFI; in experiment [3], 177 MFI; in experiment [4], 66.3 MFI; in experiment [5] it was 32.6 MFI; in experiment [6] it was 501 MFI. For the same molecule, the MFI in experiment [7] is 1130 MFI; in experiment [8], 437 MFI; in [9] it was 39.2 MFI; in [10], 20.3 MFI; in experiment [11], 609 MFI; in [12], 953 MFI. Besides, the MFI in [13] is 52.4 MFI; in experiment [14] it was 247 MFI; in experiment [15], 528 MFI; in [16], 110 MFI. Also, the “mouse B lymphocyte proliferation (OD450 nm), antibody 0 nM” value in the experiment with mouse BLyS protein was 2160 OD450 nm. Moreover, the “mouse B lymphocyte proliferation (OD450 nm), antibody 0.000256 nM” value with mouse BLyS protein was found to be 2160 OD450 nm. In addition, in the experiment with mouse BLyS protein, the “mouse B lymphocyte proliferation (OD450 nm), antibody 0.00128 nM” value was 2340 OD450 nm. For the same molecule, the “mouse B lymphocyte proliferation (OD450 nm), antibody 0.0064 nM” value with mouse BLyS protein is 2520 OD450 nm. In the experiment with mouse BLyS protein, the “mouse B lymphocyte proliferation (OD450 nm), antibody 0.032 nM” value came out at 2430 OD450 nm. For the same molecule, the “mouse B lymphocyte proliferation (OD450 nm), antibody 0.16 nM” value with mouse BLyS protein was 2410 OD450 nm. Further, the “mouse B lymphocyte proliferation (OD450 nm), antibody 0.8 nM” value with mouse BLyS protein was found to be 2530 OD450 nm. In addition, in the experiment with mouse BLyS protein, the “mouse B lymphocyte proliferation (OD450 nm), antibody 4 nM” value was determined as 2520 OD450 nm. Besides, the “mouse B lymphocyte proliferation (OD450 nm), antibody 20 nM” value with mouse BLyS protein turned out to be 2560 OD450 nm. Also, the “mouse B lymphocyte proliferation (OD450 nm), antibody 100 nM” value in the experiment with mouse BLyS protein stood at 2490 OD450 nm.

B2: 20D1B6E9E5 (antibody, V domains shown)
VH: EVQLQQSVAELVRPGASVKLSCTASDFNIKNTYIHWVKQRPEQGLEWIGRIDPVNGNTKYAPKFQDKATIIVDTYSNTAYLQLSSLASEDTAVYYCARWPITTIVATDWYFDVWGTGTTVTVSS
VL: DVLMTQTQLALPVRLGEQASISCRSSQSIVNSNGNTYLEWYLQKPGQSPKLLIYKVSNRFSGVPDRFSGSGSGTDFTLKISRVEAEDLGVYYCFQGSHVPWTFGGGTKLEIK
Take B2: the OD450 nm was found to be 0.0546 in the experiment with human APRIL protein [17]; 0.0535 with human APRIL protein [18]; 0.0543 with human APRIL protein [19]; 0.055 with human APRIL protein [20]; 0.942 with human APRIL protein [21]; 0.0611 with human APRIL protein [22]. Moreover, the OD450 nm with human APRIL protein [23] is 0.257; with human APRIL protein [24], 0.0775.

B3: 97E7B3F2 (antibody, V domains shown)
VH: EVQLQQSGPELVKSGASVKISCKASGYTFTDHKMHWVKQSHGKSLEWIGYISPYNGGTGYNQKFKSKVTLTVDISSSTAYMELRSLTSEDSAVYYCARWGFYDVMDSWGQGTSVTVSS
VL: DVLLTQTPLSLPVSLGDQASISCRSSQTIVHIIGDTYLEWYLQKPGQSPKLLIYKVSNRFSGVPDRFSGSGAGTDFTLKISRVEAEDLGVYYCFQGSHVPRTFGGGTKLEIK
As for B3, the OD450 nm was found to be 0.0537 with human APRIL protein [17]; 0.0535 in the experiment with human APRIL protein [18]; 0.0705 in the experiment with human APRIL protein [19]; 0.0533 with human APRIL protein [20]; 0.62 with human APRIL protein [21]; 0.0556 in the experiment with human APRIL protein [22]. Further, the OD450 nm with human APRIL protein [23] came to 0.182; with human APRIL protein [24], 0.0707.

B4: 93C6F10D3 (antibody, V domains shown)
VH: EVQLVESGGGLVTPGGSLKLSCVASGFAFSTYGMSWVRQTPERRLEWVAYISGGGGSIYYPDSVKGRFTISRDNAKNILYLQMSSLKSEDTAMYHCTRHPDLLLRYDYALDHWGQGTSVTVSS
VL: DIQMTQSPASLSASVGETVTITCRASENIHIYLAWYQQKQGKSPQLLVYNGKTLADGVPSRFSGSGSGTQYSLKINTLQPEDFGNYYCQHFWNSTWTFGGGTKLEIK
Consider B4, for which the OD450 nm with human APRIL protein [17] amounted to 0.0568; with human APRIL protein [18] it was 0.0546; with human APRIL protein [19], 0.0551; with human APRIL protein [20] it was 0.0568; in the experiment with human APRIL protein [21], 0.57; in the experiment with human APRIL protein [22], 0.0584. The OD450 nm with human APRIL protein [23] was 0.171; with human APRIL protein [24], 0.0746.
